Measured values as given in patent US20230391828A1, “REGULATORS OF CELL DIVISION” (TECHNISCHE UNIVERSITÄT DRESDEN, priority 2020, published 2023).
Bridge positions count the residues as written; N and C are the ends. Square brackets hold non-standard residues; d marks the D form. Pra = C#CC[C@H](N)C(=O)O

Experiments:
[1] = biological target: T1, APC/C (APC11) (Homo sapiens, UniProt Q9NYG5); test: Pull-down binding assay in HeLa K cell extract, APC/C; details: Pra peptide clicked to azide agarose or magnetic beads, Western blot
T1 construct: endogenous in cells; host or cells: HeLa K cell extract
Method: (§1) For the protein transfer, the 0.45 μm Immobilon-FL PVDF membrane (Merck Millipore) was used. The membrane was activated in ethanol and then transferred to the Blotting buffer (50 mM SDS-MOPS, 50 mM Tris base, 0.1% SDS, 1 mM EDTA, 20% EtOH). The proteins were transferred using a wet transfer for 1.5 h at 400 mA. Subsequently, the membrane was incubated with the blocking solution, 10% milk in PBS-T (0.02% Tween-20 in PBS), for 1 h at room temperature. To detect proteins of the interest, the membrane was incubated with primary antibodies overnight at 4° C. Followed by washing the membrane 3 times 10 min with PBS-T and incubation with IRDye fluorescently labelled secondary antibodies for 1 h. Prior detection, the membrane was twice washed with PBS-T for 10 min and once with PBS for 10 min. The detection was done using the quantitative near-infrared scanning system Odyssey (LI-COR Biosciences).
HeLa K cell pellet was re-suspended in the extraction buffer (30 mM HEPES pH 7.5, 175 mM NaCl, 2.5 mM MgCl2, 0.25% NP40, 10% glycerol, 1 mM DTT) supplemented with 10 μM MG132 (VWR), 1 mM PMSF (Sigma-Aldrich), complete protease inhibitor cocktail (Roche) and PhosSTOP phosphatase inhibitors (Roche) and incubated for 20 min on ice, followed by centrifugation of cell debris for 15 min at 4° C. 16 100 g. In mean time, inhibitor molecules containing Propargyl (Pra) chemical group were covalently attached to the azide agarose or azide magnetic resin (Jena Bioscience) by Cu(I)-catalysed azide-alkyne cycloaddition reaction. Specifically, the inhibitor molecules were mixed with azide agarose resin in ratio 0.125 μmol inhibitor/25 μl agarose resin and azide magnetic resin in ratio 0.018 μmol inhibitor/20 μl magnetic resin. The reaction was catalysed by 1 mM CuSO4, 0.1 mM TBTA (Sigma-Aldrich) and 1 mM Sodium ascorbate and was performed on the rotating wheel for 30 min at room temperature in the volume of 1 ml. Subsequently, the resin was washed 5 times with the extraction buffer. The inhibitor-agarose resin was added to 1 mg of HeLa K cell extract and the inhibitor-magnetic resin was added to 0.5 mg of HeLa K cell extract followed by incubation at 4° C. for 2 h. Followed by washing the resin 5 times with the extraction buffer. Pull-down proteins were eluted by boiling for 15 min with 1×LDS sample buffer supplemented with 100 mM DTT (agarose resin) or by incubation with 1×LDS sample buffer for 10 min at room temperature followed by taking supernatant that was supplemented with 100 mM DTT and boiling it for 10 min. Samples were subjected to SDS PAGE and Western blot analysis.
(§2) HeLa K cell pellet was re-suspended in the extraction buffer (30 mM HEPES pH 7.5, 175 mM NaCl, 2.5 mM MgCl2, 0.25% NP40, 10% glycerol, 1 mM DTT supplied with complete protease inhibitor cocktail (Roche), PhosSTOP phosphatase inhibitors (Roche), 1 mM PMSF, 10 μM MG132) and incubated for 20 min on ice, followed by centrifugation to clear the lysate for 15 min at 4° C. 16,100 g. In the meantime, inhibitor molecules containing the propargyl-Gly-OH (Pra) chemical group were covalently attached to the azide agarose resin (Jena Bioscience) by Cu(I)-catalysed azide-alkyne cycloaddition reaction. Specifically, the inhibitor molecules were mixed with azide agarose resin in ratio 0.125 μmol inhibitor/20 μl agarose resin. The reaction was catalysed by 0.1 mM CuSO4, 0.5 mM THPTA (Sigma-Aldrich) and 5 mM Sodium ascorbate and was performed on the rotating wheel for 30 min at room temperature in the volume of 1 ml. […]

[2] = biological target: T2, RBX1 (Homo sapiens, UniProt P62877); test: Pull-down binding assay in HeLa K cell extract, RBX1; details: azide beads, Western blot
T2 construct: endogenous in cells; host or cells: HeLa K cell extract
T2 sequence (P62877 whole entry): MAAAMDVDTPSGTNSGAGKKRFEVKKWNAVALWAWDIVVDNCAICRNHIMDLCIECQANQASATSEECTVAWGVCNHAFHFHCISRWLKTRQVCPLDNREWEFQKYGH
Method: as §1
HeLa K cell pellet was re-suspended in the extraction buffer (30 mM HEPES pH 7.5, 175 mM NaCl, 2.5 mM MgCl2, 0.25% NP40, 10% glycerol, 1 mM DTT) supplemented with 10 μM MG132 (VWR), 1 mM PMSF (Sigma-Aldrich), complete protease inhibitor cocktail (Roche) and PhosSTOP phosphatase inhibitors (Roche) and incubated for 20 min on ice, followed by centrifugation of cell debris for 15 min at 4° C. 16 100 g. […]

[3] = biological target: T3, BMI-1 (Homo sapiens, UniProt P35226); test: Pull-down binding assay in HeLa K cell extract, BMI-1; details: azide agarose beads, Western blot
T3 construct: endogenous in cells; host or cells: HeLa K cell extract
T3 sequence (P35226 1-326): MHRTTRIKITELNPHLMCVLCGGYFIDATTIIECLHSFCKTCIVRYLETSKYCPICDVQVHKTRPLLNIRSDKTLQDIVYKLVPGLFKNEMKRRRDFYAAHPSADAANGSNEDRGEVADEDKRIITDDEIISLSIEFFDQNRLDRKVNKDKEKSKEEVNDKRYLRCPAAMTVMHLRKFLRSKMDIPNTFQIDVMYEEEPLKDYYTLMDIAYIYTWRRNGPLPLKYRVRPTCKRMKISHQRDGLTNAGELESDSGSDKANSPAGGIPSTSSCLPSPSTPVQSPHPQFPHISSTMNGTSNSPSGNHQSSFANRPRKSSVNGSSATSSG
Method: as §2, with “ml. Subsequently, the resin was washed five times with the extraction buffer. The inhibitor-agarose resin was added to 2 mg of HeLa K cell extract and incubated at 4° C. for 2 h. Afterwards, the resin was washed four times with the extraction buffer. Pull-down proteins were eluted by incubation with pre-warmed 1×LDS sample buffer for 10 min at room temperature followed by taking supernatant supplemented with 100 mM DTT and boiling for 10 min.” for “ml.”

[4] = biological target: T4, BRCA1 (Homo sapiens, UniProt P38398); test: Pull-down binding assay in HeLa K cell extract, BRCA1; details: azide agarose beads, Western blot
T4 construct: endogenous in cells; host or cells: HeLa K cell extract
T4 sequence (P38398 whole entry): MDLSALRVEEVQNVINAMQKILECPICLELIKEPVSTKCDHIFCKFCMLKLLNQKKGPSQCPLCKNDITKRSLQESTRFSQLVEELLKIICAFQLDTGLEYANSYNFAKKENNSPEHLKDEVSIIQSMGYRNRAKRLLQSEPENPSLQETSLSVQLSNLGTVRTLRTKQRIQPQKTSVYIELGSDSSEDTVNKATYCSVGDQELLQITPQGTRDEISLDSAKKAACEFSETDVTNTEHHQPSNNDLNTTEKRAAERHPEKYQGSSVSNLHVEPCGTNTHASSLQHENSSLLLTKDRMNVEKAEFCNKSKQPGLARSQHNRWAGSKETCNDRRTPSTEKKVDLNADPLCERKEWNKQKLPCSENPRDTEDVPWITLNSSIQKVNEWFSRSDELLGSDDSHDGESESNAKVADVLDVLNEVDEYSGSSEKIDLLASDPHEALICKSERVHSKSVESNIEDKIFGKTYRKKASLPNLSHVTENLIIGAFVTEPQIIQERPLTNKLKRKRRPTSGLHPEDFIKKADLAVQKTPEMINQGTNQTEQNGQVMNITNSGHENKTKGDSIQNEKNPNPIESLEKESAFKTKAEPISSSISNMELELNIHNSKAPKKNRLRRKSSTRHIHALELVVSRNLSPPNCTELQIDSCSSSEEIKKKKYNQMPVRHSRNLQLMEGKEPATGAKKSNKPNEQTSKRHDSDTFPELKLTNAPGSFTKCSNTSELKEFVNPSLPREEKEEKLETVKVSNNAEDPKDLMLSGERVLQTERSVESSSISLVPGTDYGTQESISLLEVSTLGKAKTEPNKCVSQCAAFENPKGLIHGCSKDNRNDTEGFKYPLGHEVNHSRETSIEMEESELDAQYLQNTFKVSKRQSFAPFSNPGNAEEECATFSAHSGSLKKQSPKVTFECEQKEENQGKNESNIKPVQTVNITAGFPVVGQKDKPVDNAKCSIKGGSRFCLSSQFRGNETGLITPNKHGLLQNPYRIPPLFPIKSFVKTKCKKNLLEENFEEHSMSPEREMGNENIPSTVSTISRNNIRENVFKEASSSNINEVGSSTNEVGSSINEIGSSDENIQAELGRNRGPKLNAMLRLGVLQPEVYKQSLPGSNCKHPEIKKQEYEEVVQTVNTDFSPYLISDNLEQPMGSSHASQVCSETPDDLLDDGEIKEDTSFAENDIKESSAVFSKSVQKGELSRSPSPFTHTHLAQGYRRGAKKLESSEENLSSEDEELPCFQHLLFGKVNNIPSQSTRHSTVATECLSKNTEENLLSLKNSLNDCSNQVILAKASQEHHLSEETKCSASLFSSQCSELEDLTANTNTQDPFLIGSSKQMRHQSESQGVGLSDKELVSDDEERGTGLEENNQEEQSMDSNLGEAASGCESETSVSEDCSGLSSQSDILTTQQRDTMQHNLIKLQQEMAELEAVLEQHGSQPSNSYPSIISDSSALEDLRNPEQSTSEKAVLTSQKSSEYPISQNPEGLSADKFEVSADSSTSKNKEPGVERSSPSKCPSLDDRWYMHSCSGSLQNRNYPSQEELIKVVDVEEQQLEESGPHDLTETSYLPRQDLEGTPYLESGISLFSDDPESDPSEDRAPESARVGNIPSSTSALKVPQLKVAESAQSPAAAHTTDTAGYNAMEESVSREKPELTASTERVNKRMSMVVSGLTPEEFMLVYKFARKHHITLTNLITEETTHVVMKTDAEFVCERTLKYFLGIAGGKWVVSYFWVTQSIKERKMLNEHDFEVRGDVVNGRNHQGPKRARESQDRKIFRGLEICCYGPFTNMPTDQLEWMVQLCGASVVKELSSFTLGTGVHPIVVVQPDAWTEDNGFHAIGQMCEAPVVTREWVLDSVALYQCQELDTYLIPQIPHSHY
Method: as §2, with “ml. Subsequently, the resin was washed five times with the extraction buffer. The inhibitor-agarose resin was added to 2 mg of HeLa K cell extract and incubated at 4° C. for 2 h. Afterwards, the resin was washed four times with the extraction buffer. Pull-down proteins were eluted by incubation with pre-warmed 1×LDS sample buffer for 10 min at room temperature followed by taking supernatant supplemented with 100 mM DTT and boiling for 10 min.” for “ml.”

[5] = biological target: T5, c-CBL (Homo sapiens, UniProt P22681); test: Pull-down binding assay in HeLa K cell extract, c-CBL; details: azide agarose beads, Western blot
T5 construct: endogenous in cells; host or cells: HeLa K cell extract
Method: as §2, with “ml. Subsequently, the resin was washed five times with the extraction buffer. The inhibitor-agarose resin was added to 2 mg of HeLa K cell extract and incubated at 4° C. for 2 h. Afterwards, the resin was washed four times with the extraction buffer. Pull-down proteins were eluted by incubation with pre-warmed 1×LDS sample buffer for 10 min at room temperature followed by taking supernatant supplemented with 100 mM DTT and boiling for 10 min.” for “ml.”

[6] = biological target: T6, c-IAP1 (Homo sapiens, UniProt Q13490); test: Pull-down binding assay in HeLa K cell extract, c-IAP1; details: azide agarose beads, Western blot
T6 construct: endogenous in cells; host or cells: HeLa K cell extract
T6 sequence (Q13490 whole entry): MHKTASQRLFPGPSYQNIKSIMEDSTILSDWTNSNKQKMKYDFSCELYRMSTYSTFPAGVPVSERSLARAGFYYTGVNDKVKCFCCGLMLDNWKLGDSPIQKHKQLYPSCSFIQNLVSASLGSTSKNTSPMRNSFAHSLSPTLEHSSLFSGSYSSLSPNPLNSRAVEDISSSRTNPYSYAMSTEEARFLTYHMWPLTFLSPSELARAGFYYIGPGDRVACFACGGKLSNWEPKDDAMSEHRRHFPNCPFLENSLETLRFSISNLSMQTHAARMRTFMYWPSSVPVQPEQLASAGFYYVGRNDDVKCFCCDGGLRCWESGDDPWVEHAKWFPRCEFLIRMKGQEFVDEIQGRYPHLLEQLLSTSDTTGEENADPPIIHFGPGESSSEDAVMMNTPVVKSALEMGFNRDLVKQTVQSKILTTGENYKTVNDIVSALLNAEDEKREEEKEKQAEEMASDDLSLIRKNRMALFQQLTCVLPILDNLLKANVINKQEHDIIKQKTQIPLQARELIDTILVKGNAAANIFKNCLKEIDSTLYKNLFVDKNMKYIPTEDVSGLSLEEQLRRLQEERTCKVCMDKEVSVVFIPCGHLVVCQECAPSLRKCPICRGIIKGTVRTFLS
Method: as §2, with “ml. Subsequently, the resin was washed five times with the extraction buffer. The inhibitor-agarose resin was added to 2 mg of HeLa K cell extract and incubated at 4° C. for 2 h. Afterwards, the resin was washed four times with the extraction buffer. Pull-down proteins were eluted by incubation with pre-warmed 1×LDS sample buffer for 10 min at room temperature followed by taking supernatant supplemented with 100 mM DTT and boiling for 10 min.” for “ml.”

[7] = biological target: T7, MDM2 (Homo sapiens, UniProt Q00987); test: Pull-down binding assay in HeLa K cell extract, MDM2; details: azide agarose beads, Western blot
T7 construct: endogenous in cells; host or cells: HeLa K cell extract
T7 sequence (Q00987 whole entry): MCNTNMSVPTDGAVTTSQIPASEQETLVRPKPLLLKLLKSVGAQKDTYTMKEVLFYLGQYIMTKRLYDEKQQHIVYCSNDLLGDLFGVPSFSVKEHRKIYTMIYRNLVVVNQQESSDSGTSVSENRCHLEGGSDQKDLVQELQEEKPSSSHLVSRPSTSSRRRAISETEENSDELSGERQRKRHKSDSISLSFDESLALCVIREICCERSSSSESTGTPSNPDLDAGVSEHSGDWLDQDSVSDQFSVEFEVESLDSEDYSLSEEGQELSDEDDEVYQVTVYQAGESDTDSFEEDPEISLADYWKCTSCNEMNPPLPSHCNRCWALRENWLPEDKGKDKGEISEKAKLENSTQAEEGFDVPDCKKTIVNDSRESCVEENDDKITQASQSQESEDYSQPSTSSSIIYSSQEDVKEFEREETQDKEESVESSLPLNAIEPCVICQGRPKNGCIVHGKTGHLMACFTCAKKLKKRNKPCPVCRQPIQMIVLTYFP
Method: as §2, with “ml. Subsequently, the resin was washed five times with the extraction buffer. The inhibitor-agarose resin was added to 2 mg of HeLa K cell extract and incubated at 4° C. for 2 h. Afterwards, the resin was washed four times with the extraction buffer. Pull-down proteins were eluted by incubation with pre-warmed 1×LDS sample buffer for 10 min at room temperature followed by taking supernatant supplemented with 100 mM DTT and boiling for 10 min.” for “ml.”

[8] = biological target: T8, TRAF2 (Homo sapiens, UniProt Q12933); test: Pull-down binding assay in HeLa K cell extract, TRAF2; details: azide agarose beads, Western blot
T8 construct: endogenous in cells; host or cells: HeLa K cell extract
T8 sequence (Q12933 1-501): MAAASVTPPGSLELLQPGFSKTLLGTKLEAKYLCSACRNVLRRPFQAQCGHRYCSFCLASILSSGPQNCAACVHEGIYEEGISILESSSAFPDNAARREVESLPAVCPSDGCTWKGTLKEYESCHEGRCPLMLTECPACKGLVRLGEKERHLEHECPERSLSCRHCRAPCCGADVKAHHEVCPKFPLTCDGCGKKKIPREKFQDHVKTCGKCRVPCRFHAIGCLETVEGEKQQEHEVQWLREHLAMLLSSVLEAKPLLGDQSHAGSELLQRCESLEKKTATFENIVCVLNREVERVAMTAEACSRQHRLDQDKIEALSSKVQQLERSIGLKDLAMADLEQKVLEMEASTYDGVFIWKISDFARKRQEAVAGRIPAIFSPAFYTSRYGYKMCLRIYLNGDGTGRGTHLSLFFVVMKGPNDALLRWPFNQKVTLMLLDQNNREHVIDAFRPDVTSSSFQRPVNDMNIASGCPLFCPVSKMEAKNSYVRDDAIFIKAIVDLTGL
Method: as §2, with “ml. Subsequently, the resin was washed five times with the extraction buffer. The inhibitor-agarose resin was added to 2 mg of HeLa K cell extract and incubated at 4° C. for 2 h. Afterwards, the resin was washed four times with the extraction buffer. Pull-down proteins were eluted by incubation with pre-warmed 1×LDS sample buffer for 10 min at room temperature followed by taking supernatant supplemented with 100 mM DTT and boiling for 10 min.” for “ml.”

Ac-cyclo(3,12)-PraRCHWGPRTFWCR-NH2 (Ac-[Pra]RCHWGPRTFWCR-NH2; disulfide 3-12; SMILES C#CC[C@H](NC(C)=O)C(=O)N[C@@H](CCCNC(=N)N)C(=O)N[C@H]1CSSC[C@@H](C(=O)N[C@@H](CCCNC(=N)N)C(N)=O)NC(=O)[C@H](Cc2c[nH]c3ccccc23)NC(=O)[C@H](Cc2ccccc2)NC(=O)[C@H]([C@@H](C)O)NC(=O)[C@H](CCCNC(=N)N)NC(=O)[C@@H]2CCCN2C(=O)CNC(=O)[C@H](Cc2c[nH]c3ccccc23)NC(=O)[C@H](Cc2c[nH]cn2)NC1=O) [G1-3Pra]
binds: binding to the APC/C (pull-down) [1] | binding to RBX1 (pull-down) [2] | binding to BMI-1 (pull-down) [3] | binding to BRCA1 (pull-down) [4] | binding to c-CBL (pull-down) [5] | binding to c-IAP1 (pull-down) [6] | binding to MDM2 (pull-down) [7] | binding to TRAF2 (pull-down) [8]
